B1: NET1 (parent)
chain: RVRPLARVTSLANLISPVRNGAVR

Variants of: B1
Assay: protein stability index of a GFP-peptide fusion (GPS, HEK-293T) (PSI 1-6); higher = more stable
Conditions: c terminus: a fixed tail appended
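Further: lentivirally expressed fusions sorted by FACS into six bins by GFP to DsRed ratio, PSI derived from sequencing read proportions per bin multiplied by bin number.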

Variant | protein stability index
I15C | 2.76
I15W | 2.47
I15F | 2.76
I15M | 3.29
I15A | 4.27
I15G | 3.6
I15Q | 3.66
I15S | 3.63
I15L | 3.03
I15Y | 3.27
I15R | 3.56
I15K | 3.27
I15V | 3.39
I15P | 3.31
I15N | 3.97
I15E | 4.08
I15D | 3.65
I15T | 3.5
I15H | 4.02
L5Q | 3.54
L5D | 3.04
L5R | 3.2
L5V | 3.59
L5S | 3.6

Variant | protein stability index
L5I | 3.04
L5P | 3.3
L5A | 3.36
L5G | 2.5
L5T | 2.56
L5C | 3.04
L5Y | 2.59
L5H | 3.14
L5M | 2.55
L5W | 2.03
L5E | 3.61
L5N | 2.56
L5F | 2.71
L5K | 2.85
A12K | 2.94
A12C | 2.66
A12Q | 3.71
A12M | 2.42
A12V | 2.89
A12W | 1.83
A12H | 3.27
A12P | 4.28
A12S | 3.49
A12Y | 2.52

Variant | protein stability index
A12R | 2.64
A12T | 3.89
A12E | 3.91
A12N | 2.79
A12L | 2.77
A12D | 3.93
A12I | 2.58
A12F | 2.14
P4E | 2
P4V | 2.02
P4H | 2.86
P4C | 1.18
P4A | 2.06
P4S | 2.85
P4D | 3.06
P4Q | 2.51
P4K | 2.87
P4W | 2.71
P4G | 2.38
P4I | 1.4
P4F | 2.4
P4R | 1.97
P4M | 1.43
P4N | 2.9

Variant | protein stability index
P4T | 2.31
L14Q | 3.02
L14T | 3.67
L14N | 3.84
L14C | 1.66
L14G | 3.24
L14P | 3.76
L14V | 2.72
L14D | 4.39
L14H | 3.63
L14K | 3.35
L14I | 3.03
L14E | 3.16
L14Y | 3.17
L14S | 3.15
L14M | 2.61
L14F | 2.65
L14R | 3.34
L14W | 4.15
L14A | 3.15
L11G | 3.25
L11C | 2.56
L11Y | 2.43
L11F | 3.19

Variant | protein stability index
L11Q | 4.39
L11K | 3.21
L11H | 2.94
L11D | 3.24
L11P | 3.96
L11T | 3.56
L11R | 3.29
L11N | 3.77
L11E | 3.56
L11A | 3.98
L11S | 3.14
L11M | 3.45
L11V | 3.08
L11W | 1.98
L11I | 2.83
V2P | 3.11
V2N | 2.79
V2W | 2.67
V2Q | 3.59
V2R | 2.92
V2T | 3.14
V2Y | 2.62
V2S | 3.57
N13C | 1.93

Variant | protein stability index
N13V | 2.33
N13H | 2.66
N13Y | 1.38
N13Q | 2.52
N13T | 3.11
N13K | 2.84
N13A | 2.75
N13I | 2.34
N13E | 3.22
N13G | 3.05
N13R | 3.33
N13L | 1.98
N13W | 1.72
N13D | 3.43
N13M | 1.92
N13F | 2.6
N13P | 3.65
N13S | 2.65
S16Q | 3.76
S16A | 3.46
S16G | 3.14
S16N | 3.23
S16K | 2.88
S16Y | 2.66

Variant | protein stability index
S16H | 2.83
S16F | 2.21
S16C | 1.25
S16E | 3.15
S16R | 3.03
S16V | 2.99
S16W | 2.55
S16T | 3.56
S16P | 3.32
S16I | 2.44
S16M | 2.31
S16L | 2.49
S16D | 2.86
A6C | 2.98
A6I | 2.76
A6H | 2.69
A6M | 3.18
A6Y | 2.02
A6T | 2.9
A6R | 3.33
A6G | 3.98
A6V | 3.36
A6S | 2.53
A6E | 3.06

Variant | protein stability index
A6F | 2.71
A6L | 2.72
A6W | 2.35
A6P | 3.04
A6N | 2.93
A6D | 2.95
A6K | 2.74
A6Q | 3.17
V8E | 3.54
V8R | 2.92
V8C | 2.93
V8D | 3.63
V8L | 2.65
V8T | 3.76
V8P | 3.1
V8W | 3.05
V8Q | 2.73
V8Y | 2.38
V8H | 2.49
V8I | 2.38
V8F | 2.28
V8M | 2.79
V8G | 2.32
V8K | 2.6

Variant | protein stability index
V8N | 2.87
V8S | 3.99
V8A | 4.44
V18E | 3.63
V18W | 2.25
V18P | 3.12
V18R | 3.15
V18Y | 2.23
V18M | 3.07
V18A | 3.03
V18C | 2.21
V18L | 2.94
V18S | 4.17
V18I | 2.83
V18N | 3.2
V18T | 3.68
V18D | 4.03
V18F | 2.29
V18K | 2.31
V18H | 2.75
V18Q | 3.63
V18G | 3.49
T9P | 2.74
T9L | 2.09

Variant | protein stability index
T9H | 2.75
T9A | 2.81
T9D | 3.73
T9K | 3.69
T9W | 3.24
T9M | 2.66
T9N | 3.38
T9S | 3.45
T9E | 2.87
T9Q | 3.81
T9V | 2.96
T9F | 2.85
T9Y | 3.12
T9G | 3.68
T9I | 1.84
T9R | 2.76
T9C | 3.08
R19K | 2.59
R19M | 2.53
R19V | 3.6
R19G | 3.4
R19E | 3.55
R19I | 3.02
R19D | 3.76

Variant | protein stability index
R19P | 2.68
R19Y | 2.19
R19N | 3.28
R19Q | 3.06
R19H | 2.69
R19F | 2.29
R19C | 2.99
R19W | 1.82
R19A | 2.96
R19L | 2.81
R19S | 3.2
R19T | 3.3
S10Q | 3.42
S10Y | 2.04
S10F | 1.46
S10D | 2.54
S10W | 1.99
S10K | 2.41
S10A | 2.51
S10C | 1.62
S10E | 3
S10R | 3.06
S10I | 3.84
S10G | 2.52

Variant | protein stability index
S10M | 1.78
S10L | 1.43
S10H | 2.54
S10N | 3.08
S10P | 3.01
S10V | 3.11
R7L | 2.83
R7G | 3.93
R7C | 2.39
R7T | 3.39
R7S | 2.78
R7H | 2.71
R7I | 2.43
R7A | 3.88
R7F | 1.85
R7D | 2.84
R7P | 3.81
R7K | 2.26
R7Y | 2.77
R7N | 3.31
R7E | 2.5
R7Q | 3.37
R7M | 2.64
R7V | 2.84

Variant | protein stability index
R7W | 2.79
R3V | 2.6
R3H | 2.67
R3T | 2.99
R3M | 2.46
R3W | 1.91
R3N | 2.36
R3Y | 2.55
R3K | 2.81
R3P | 3.49
R3S | 3.03
R3L | 2.34
R3A | 3.02
R3G | 3.1
R3Q | 3.33
R3D | 3.03
R3F | 2.69
R3I | 2.22
R3E | 2.59
R3C | 1.72
N20E | 3.33
N20C | 2.72
N20F | 2.26
N20D | 3.2

Variant | protein stability index
N20A | 2.91
N20H | 3.3
N20G | 2.96
P17Q | 2.29
P17T | 2.8
P17H | 2.15
P17R | 2.24
P17N | 2.81
P17Y | 2.07
P17L | 2.03
P17G | 2.14
P17F | 1.56
P17W | 1.89
P17M | 2.17
P17C | 3.96
P17D | 3.03
P17I | 2.24
P17K | 3.09
P17A | 2.1
P17V | 3.16
P17S | 3.45
P17E | 2.4
